Data reported in publication PMC3839082.
Positions count from the first letter of the chain named. Names and notes keep the numbering of the source.

Substrate: Nc1ncnc2c1ncn2[C@@H]1O[C@H](COP(=O)(O)OP(=O)(O)OP(=O)(O)O)[C@@H](O)[C@H]1O
Experiment: purified protein
Format: biochemical, Homo sapiens
Conditions: Mg2+ ATP binding site

B1: hCINAP (Homo sapiens) (protein)
chain: MLLPNILLTGTPGVGKTTLGKELASKSGLKYINVGDLAREEQLYDGYDEEYDCPILDEDRVVDELDNQMREGGVIVDYHGCDFFPERWFHIVFVLRTDTNVLYERLETRGYNEKKLTDNIQCEIFQVLYEEATASYKEEIVHQLPSNKPEELENNVDQILKWIEQWIKDHNS
Km: 45 ± 5 µM | kcat/Km: 140 M⁻¹ s⁻¹

B2: hCINAP-H79G (Homo sapiens; H79G) (protein)
chain: B1 chain with H79G
Km: 93 ± 8 µM
